# Data reported in US20210322511A1 (Harvard, published 2021).
# Key:
# [1] = target: the molecule itself; experiment: SEC, then non-reducing and reducing SDS-PAGE
# [2] = target: the molecule itself; experiment: non-reducing SDS-PAGE, disulfide-linked homodimer
# Experimental: Fractions of the last SEC were analyzed by SDS-PAGE and Coomassie-blue staining. The position of SP-B is indicated by an arrow.
# The extract was subjected to chromatography on a Sepharose LH-20 column to remove phospholipids. Protein fractions were dried, dissolved in the detergent octylglucoside, and further purified by size-exclusion chromatography (SEC).
Protein,binding result [1],binding result [2]
"recombinant human SP-BM (other, inter-molecular disulfide bond in the dimer, also called recombinant SP-BM) PIPLPYCWLCRALIKRIQAMIPKGALAVAVAQVCRVVPLVAGGICQCLAERYSVILLDTLLGRMLPQLVCRLVLRCSM",binds,–
"SP-BM purified from bovine lungs (other, UniProt P15781 188-266, looked up, monomers disulfide-linked through Cys48, domain: SP-BM; also called bovine SP-BM; mature SP-B) FPIPIPYCWLCRTLIKRIQAVIPKGVLAMTVAQVCHVVPLLVGGICQCLVERYSVILLDTLLGRMLPQLVCGLVLRCSS",–,binds
